*1 amine or outer side, *2 acyl side, *3 side chain or, on linkers, in order; H or OH if unused. Where no end group is shown, it is not given here. Side-chain parts run from the residue outwards. [ ]: non-standard residue; d: D form. The star is where a group is joined. γGlu = O=C(O)[C@H](CCC(=O)[*:2])N[*:1]; Stearoyl = CCCCCCCCCCCCCCCCCC(=O)*; Palmitoyl = CCCCCCCCCCCCCCCC(=O)*; d(αMeK) = C[C@@](N)(CCCCN)C(=O)O; αMeOrn = C[C@](N)(CCCN)C(=O)O; αMeK = C[C@](N)(CCCCN)C(=O)O; Api = NC1(C(=O)O)CCNCC1; Aib = CC(C)(N)C(=O)O
T1: human GIP receptor (human, UniProt P48546 22-466)
T1 sequence (looked up): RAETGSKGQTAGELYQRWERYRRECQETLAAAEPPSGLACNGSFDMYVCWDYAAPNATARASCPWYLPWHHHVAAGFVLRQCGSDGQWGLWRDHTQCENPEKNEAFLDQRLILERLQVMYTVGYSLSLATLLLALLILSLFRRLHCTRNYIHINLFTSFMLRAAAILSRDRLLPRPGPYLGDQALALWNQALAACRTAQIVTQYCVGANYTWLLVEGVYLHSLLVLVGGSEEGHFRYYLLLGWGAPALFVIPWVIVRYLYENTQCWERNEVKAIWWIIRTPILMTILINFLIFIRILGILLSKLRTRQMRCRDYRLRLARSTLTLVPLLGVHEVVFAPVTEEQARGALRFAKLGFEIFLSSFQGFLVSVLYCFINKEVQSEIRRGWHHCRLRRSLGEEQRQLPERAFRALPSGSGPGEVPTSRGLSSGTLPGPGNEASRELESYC


Columns and labels:
Experiment in all cases: cell-based or functional assay
human GIP receptor = molecular target: T1, human GIP receptor
human GLP-1 receptor = human GLP-1 receptor (human, UniProt P43220 24-463)
human glucagon receptor = human glucagon receptor (human, UniProt P47871 26-477)
Chain of human glucagon receptor (P47871 26-477): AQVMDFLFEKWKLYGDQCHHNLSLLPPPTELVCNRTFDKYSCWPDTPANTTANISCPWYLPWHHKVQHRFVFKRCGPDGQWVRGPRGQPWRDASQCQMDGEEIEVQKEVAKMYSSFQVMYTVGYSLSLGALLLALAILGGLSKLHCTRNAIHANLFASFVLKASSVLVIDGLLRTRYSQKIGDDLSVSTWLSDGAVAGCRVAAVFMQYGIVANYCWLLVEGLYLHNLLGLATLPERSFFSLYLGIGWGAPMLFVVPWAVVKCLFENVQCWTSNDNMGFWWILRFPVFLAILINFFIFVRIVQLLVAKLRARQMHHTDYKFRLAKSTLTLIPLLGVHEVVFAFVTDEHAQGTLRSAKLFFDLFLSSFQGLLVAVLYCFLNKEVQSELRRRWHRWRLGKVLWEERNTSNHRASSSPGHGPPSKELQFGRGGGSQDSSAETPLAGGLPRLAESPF

Row | Binder | EC50 hGIP R [pM] (cAMP formation) (human GIP receptor) | EC50 hGLP-1 R [pM] (cAMP formation) (human GLP-1 receptor) | EC50 hGLUC R [pM] (cAMP formation) (human glucagon receptor)
1 | Y[Aib]QGTFTSDLSKQK([γGlu-Stearoyl])DEQRA[αMeK]EFIEWLKSGGPSSGAPPPS-NH2 (N-terminus assumed; SMILES CCCCCCCCCCCCCCCCCC(=O)N[C@@H](CCC(=O)NCCCC[C@H](NC(=O)[C@H](CCC(N)=O)NC(=O)[C@H](CCCCN)NC(=O)[C@H](CO)NC(=O)[C@H](CC(C)C)NC(=O)[C@H](CC(=O)O)NC(=O)[C@H](CO)NC(=O)[C@@H](NC(=O)[C@H](Cc1ccccc1)NC(=O)[C@@H](NC(=O)CNC(=O)[C@H](CCC(N)=O)NC(=O)C(C)(C)NC(=O)[C@@H](N)Cc1ccc(O)cc1)[C@@H](C)O)[C@@H](C)O)C(=O)N[C@@H](CC(=O)O)C(=O)N[C@@H](CCC(=O)O)C(=O)N[C@@H](CCC(N)=O)C(=O)N[C@@H](CCCNC(=N)N)C(=O)N[C@@H](C)C(=O)N[C@@](C)(CCCCN)C(=O)N[C@@H](CCC(=O)O)C(=O)N[C@@H](Cc1ccccc1)C(=O)N[C@H](C(=O)N[C@@H](CCC(=O)O)C(=O)N[C@@H](Cc1c[nH]c2ccccc12)C(=O)N[C@@H](CC(C)C)C(=O)N[C@@H](CCCCN)C(=O)N[C@@H](CO)C(=O)NCC(=O)NCC(=O)N1CCC[C@H]1C(=O)N[C@@H](CO)C(=O)N[C@@H](CO)C(=O)NCC(=O)N[C@@H](C)C(=O)N1CCC[C@H]1C(=O)N1CCC[C@H]1C(=O)N1CCC[C@H]1C(=O)N[C@@H](CO)C(N)=O)[C@@H](C)CC)C(=O)O) [SEQ ID NO: 12] | 27 | 11.6 | 
2 | Y[Aib]EGTFTSDLSIQK([γGlu-Palmitoyl])EERAA[αMeOrn]EFIEWLKNTGPSSGAPPPS-NH2 (N-terminus assumed; SMILES CCCCCCCCCCCCCCCC(=O)N[C@@H](CCC(=O)NCCCC[C@H](NC(=O)[C@H](CCC(N)=O)NC(=O)[C@@H](NC(=O)[C@H](CO)NC(=O)[C@H](CC(C)C)NC(=O)[C@H](CC(=O)O)NC(=O)[C@H](CO)NC(=O)[C@@H](NC(=O)[C@H](Cc1ccccc1)NC(=O)[C@@H](NC(=O)CNC(=O)[C@H](CCC(=O)O)NC(=O)C(C)(C)NC(=O)[C@@H](N)Cc1ccc(O)cc1)[C@@H](C)O)[C@@H](C)O)[C@@H](C)CC)C(=O)N[C@@H](CCC(=O)O)C(=O)N[C@@H](CCC(=O)O)C(=O)N[C@@H](CCCNC(=N)N)C(=O)N[C@@H](C)C(=O)N[C@@H](C)C(=O)N[C@@](C)(CCCN)C(=O)N[C@@H](CCC(=O)O)C(=O)N[C@@H](Cc1ccccc1)C(=O)N[C@H](C(=O)N[C@@H](CCC(=O)O)C(=O)N[C@@H](Cc1c[nH]c2ccccc12)C(=O)N[C@@H](CC(C)C)C(=O)N[C@@H](CCCCN)C(=O)N[C@@H](CC(N)=O)C(=O)N[C@H](C(=O)NCC(=O)N1CCC[C@H]1C(=O)N[C@@H](CO)C(=O)N[C@@H](CO)C(=O)NCC(=O)N[C@@H](C)C(=O)N1CCC[C@H]1C(=O)N1CCC[C@H]1C(=O)N1CCC[C@H]1C(=O)N[C@@H](CO)C(N)=O)[C@@H](C)O)[C@@H](C)CC)C(=O)O) [SEQ ID NO: 10] | 7.1 | 4.9 | 10400
3 | Y[Aib]EGTFTSDLSIQK([γGlu-Palmitoyl])EERAA[Api]EFIEWLKNTGPSSGAPPPS-NH2 (N-terminus assumed; SMILES CCCCCCCCCCCCCCCC(=O)N[C@@H](CCC(=O)NCCCC[C@H](NC(=O)[C@H](CCC(N)=O)NC(=O)[C@@H](NC(=O)[C@H](CO)NC(=O)[C@H](CC(C)C)NC(=O)[C@H](CC(=O)O)NC(=O)[C@H](CO)NC(=O)[C@@H](NC(=O)[C@H](Cc1ccccc1)NC(=O)[C@@H](NC(=O)CNC(=O)[C@H](CCC(=O)O)NC(=O)C(C)(C)NC(=O)[C@@H](N)Cc1ccc(O)cc1)[C@@H](C)O)[C@@H](C)O)[C@@H](C)CC)C(=O)N[C@@H](CCC(=O)O)C(=O)N[C@@H](CCC(=O)O)C(=O)N[C@@H](CCCNC(=N)N)C(=O)N[C@@H](C)C(=O)N[C@@H](C)C(=O)NC1(C(=O)N[C@@H](CCC(=O)O)C(=O)N[C@@H](Cc2ccccc2)C(=O)N[C@H](C(=O)N[C@@H](CCC(=O)O)C(=O)N[C@@H](Cc2c[nH]c3ccccc23)C(=O)N[C@@H](CC(C)C)C(=O)N[C@@H](CCCCN)C(=O)N[C@@H](CC(N)=O)C(=O)N[C@H](C(=O)NCC(=O)N2CCC[C@H]2C(=O)N[C@@H](CO)C(=O)N[C@@H](CO)C(=O)NCC(=O)N[C@@H](C)C(=O)N2CCC[C@H]2C(=O)N2CCC[C@H]2C(=O)N2CCC[C@H]2C(=O)N[C@@H](CO)C(N)=O)[C@@H](C)O)[C@@H](C)CC)CCNCC1)C(=O)O) [SEQ ID NO: 8] | 16.3 | 4.7 | 34700
4 | Y[Aib]EGTFTSDLSIQK([γGlu-Palmitoyl])EERAA[d(αMeK)]EFIEWLKNTGPSSGAPPPS-NH2 (N-terminus assumed; SMILES CCCCCCCCCCCCCCCC(=O)N[C@@H](CCC(=O)NCCCC[C@H](NC(=O)[C@H](CCC(N)=O)NC(=O)[C@@H](NC(=O)[C@H](CO)NC(=O)[C@H](CC(C)C)NC(=O)[C@H](CC(=O)O)NC(=O)[C@H](CO)NC(=O)[C@@H](NC(=O)[C@H](Cc1ccccc1)NC(=O)[C@@H](NC(=O)CNC(=O)[C@H](CCC(=O)O)NC(=O)C(C)(C)NC(=O)[C@@H](N)Cc1ccc(O)cc1)[C@@H](C)O)[C@@H](C)O)[C@@H](C)CC)C(=O)N[C@@H](CCC(=O)O)C(=O)N[C@@H](CCC(=O)O)C(=O)N[C@@H](CCCNC(=N)N)C(=O)N[C@@H](C)C(=O)N[C@@H](C)C(=O)N[C@](C)(CCCCN)C(=O)N[C@@H](CCC(=O)O)C(=O)N[C@@H](Cc1ccccc1)C(=O)N[C@H](C(=O)N[C@@H](CCC(=O)O)C(=O)N[C@@H](Cc1c[nH]c2ccccc12)C(=O)N[C@@H](CC(C)C)C(=O)N[C@@H](CCCCN)C(=O)N[C@@H](CC(N)=O)C(=O)N[C@H](C(=O)NCC(=O)N1CCC[C@H]1C(=O)N[C@@H](CO)C(=O)N[C@@H](CO)C(=O)NCC(=O)N[C@@H](C)C(=O)N1CCC[C@H]1C(=O)N1CCC[C@H]1C(=O)N1CCC[C@H]1C(=O)N[C@@H](CO)C(N)=O)[C@@H](C)O)[C@@H](C)CC)C(=O)O) [SEQ ID NO: 9] | 93.2 | 13.5 | > 1e+06

— patent US20140221281A1 (Sanofi, published 2014)
